What all share (assay): cell-based or functional assay
One experiment concerns the target human GCG receptor (human, UniProt P47871 26-477).
The target in the next experiment is human GLP-1 receptor (human, UniProt P43220 24-463).
For a further experiment, the target named is T1, human GIP receptor (human, UniProt P48546 22-466).
T1 sequence (looked up): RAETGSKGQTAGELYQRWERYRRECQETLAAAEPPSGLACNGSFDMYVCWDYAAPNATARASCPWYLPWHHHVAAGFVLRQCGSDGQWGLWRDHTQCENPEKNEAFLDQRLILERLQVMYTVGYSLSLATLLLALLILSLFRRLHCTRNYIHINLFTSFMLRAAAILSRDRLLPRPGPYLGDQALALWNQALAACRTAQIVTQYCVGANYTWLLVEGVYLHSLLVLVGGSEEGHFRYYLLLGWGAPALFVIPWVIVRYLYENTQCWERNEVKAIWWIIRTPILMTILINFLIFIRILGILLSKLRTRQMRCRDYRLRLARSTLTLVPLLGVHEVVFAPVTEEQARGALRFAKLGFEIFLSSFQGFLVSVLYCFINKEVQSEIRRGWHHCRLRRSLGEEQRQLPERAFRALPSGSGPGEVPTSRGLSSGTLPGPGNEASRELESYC

Bridges are numbered along the chain shown (N, C = ends). Where no end group is shown, it is not given here. [ ]: non-standard residue; d: D form. The star is where a group is joined. Acetyl(2-(4-imidazolyl)) = O=C(Cc1c[nH]cn1)*; Aib = CC(C)(N)C(=O)O

Sequence of human GCG receptor (P47871 26-477): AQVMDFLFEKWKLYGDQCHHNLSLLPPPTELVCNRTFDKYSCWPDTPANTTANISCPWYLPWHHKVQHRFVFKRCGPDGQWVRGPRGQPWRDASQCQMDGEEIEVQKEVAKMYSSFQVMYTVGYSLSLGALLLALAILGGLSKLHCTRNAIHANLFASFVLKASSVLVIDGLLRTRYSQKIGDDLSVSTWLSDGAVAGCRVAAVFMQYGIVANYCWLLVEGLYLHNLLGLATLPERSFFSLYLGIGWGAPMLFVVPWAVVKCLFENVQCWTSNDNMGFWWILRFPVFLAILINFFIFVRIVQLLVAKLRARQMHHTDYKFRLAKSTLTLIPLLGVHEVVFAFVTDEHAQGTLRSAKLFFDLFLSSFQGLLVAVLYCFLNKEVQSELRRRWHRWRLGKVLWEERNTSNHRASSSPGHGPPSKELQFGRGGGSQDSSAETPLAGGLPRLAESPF

B1: triple agonist of SEQ ID NO: 44 (peptide)
peptide: HGQGTFTSDCSKQLDGQAAQEFVAWLLAGGPSSGAPPPS
On to B1, for which, in the experiment with human GCG receptor, the “In vitro activity relative to native peptide (%) vs. Glucagon” value was below 0.1%. Also, in the experiment with human GLP-1 receptor, the “In vitro activity relative to native peptide (%) vs. GLP-1” value was found to be 1.3%. The “In vitro activity relative to native peptide (%) vs. GIP” value in the experiment with human GIP receptor was below 0.1%.

B2: triple agonist of SEQ ID NO: 48 (peptide)
peptide: HGQGTFTSDCSKYLDGQRAQDFVNWLLAGGPSSGAPPPS
Turning to B2, the “In vitro activity relative to native peptide (%) vs. Glucagon” value in the experiment with human GCG receptor was below 0.1%. Moreover, the “In vitro activity relative to native peptide (%) vs. GLP-1” value in the experiment with human GLP-1 receptor turned out to be 1.5%. For the same molecule, the “In vitro activity relative to native peptide (%) vs. GIP” value with human GIP receptor is below 0.1%.

B3: triple agonist of SEQ ID NO: 46 (peptide)
peptide: HGQGTFTSDCSKYLDEQHAQEFVAWLLAGGPSSGAPPPS
As to B3, in the experiment with human GCG receptor, the “In vitro activity relative to native peptide (%) vs. Glucagon” value is below 0.1%. In addition, in the experiment with human GLP-1 receptor, the “In vitro activity relative to native peptide (%) vs. GLP-1” value was 1.4%. For the same molecule, the “In vitro activity relative to native peptide (%) vs. GIP” value with human GIP receptor is below 0.1%.

B4: triple agonist of SEQ ID NO: 47 (peptide)
peptide: HGQGTFTSDCSKYLDGQRAQEFVAWLLAGGPSSGAPPPS
Turning to B4, in the experiment with human GCG receptor, the “In vitro activity relative to native peptide (%) vs. Glucagon” value was below 0.1%. Further, the “In vitro activity relative to native peptide (%) vs. GLP-1” value with human GLP-1 receptor is 2.4%. Besides, the “In vitro activity relative to native peptide (%) vs. GIP” value with human GIP receptor is below 0.1%.

B5: triple agonist of SEQ ID NO: 45 (peptide)
peptide: HGQGTFTSDCSKYMDGQAAQDFVAWLLAGGPSSGAPPPS
In the case of B5, the “In vitro activity relative to native peptide (%) vs. Glucagon” value in the experiment with human GCG receptor is below 0.1%. The “In vitro activity relative to native peptide (%) vs. GLP-1” value in the experiment with human GLP-1 receptor is 6.6%. For the same molecule, in the experiment with human GIP receptor, the “In vitro activity relative to native peptide (%) vs. GIP” value is below 0.1%.

B6: triple agonist of SEQ ID NO: 41 (peptide)
peptide: H[Aib]QGTFTSDKSKYLDECAAQDFVQWLLDGGPSSGAPPPS
Regarding B6, the “In vitro activity relative to native peptide (%) vs. Glucagon” value with human GCG receptor was below 0.1%. Moreover, the “In vitro activity relative to native peptide (%) vs. GLP-1” value with human GLP-1 receptor was 34.3%. For the same molecule, the “In vitro activity relative to native peptide (%) vs. GIP” value with human GIP receptor was below 0.1%.

B7: triple agonist of SEQ ID NO: 40 (peptide)
peptide: H[Aib]QGTFTSDKSKYLDERACQDFVQWLLDGGPSSGAPPPS
In the case of B7, the “In vitro activity relative to native peptide (%) vs. Glucagon” value in the experiment with human GCG receptor was below 0.1%. Further, the “In vitro activity relative to native peptide (%) vs. GLP-1” value in the experiment with human GLP-1 receptor amounted to 75.2%. The “In vitro activity relative to native peptide (%) vs. GIP” value in the experiment with human GIP receptor was below 0.1%.

B8: triple agonist of SEQ ID NO: 1 (peptide)
peptide: H[Aib]QGTFTSDVSSYLDGQAAKEFIAWLVKGC
Take B8: the “In vitro activity relative to native peptide (%) vs. Glucagon” value in the experiment with human GCG receptor is below 0.1%. The “In vitro activity relative to native peptide (%) vs. GLP-1” value in the experiment with human GLP-1 receptor stood at 3.2%. Also, in the experiment with human GIP receptor, the “In vitro activity relative to native peptide (%) vs. GIP” value was below 0.1%.

B9: triple agonist of SEQ ID NO: 5 (peptide)
peptide: H[Aib]QGTFTSDVSSYLLGQQQKEFIAWLVKGGGPSSGAPPPSC
Turning to B9, the “In vitro activity relative to native peptide (%) vs. Glucagon” value in the experiment with human GCG receptor was below 0.1%. Further, the “In vitro activity relative to native peptide (%) vs. GLP-1” value in the experiment with human GLP-1 receptor came to 42.1%. In addition, the “In vitro activity relative to native peptide (%) vs. GIP” value with human GIP receptor was below 0.1%.

B10: triple agonist of SEQ ID NO: 4 (peptide)
peptide: H[Aib]QGTFTSDVSSYLLGQQQKEFIAWLVKGC
As for B10, the “In vitro activity relative to native peptide (%) vs. Glucagon” value with human GCG receptor was below 0.1%. Moreover, in the experiment with human GLP-1 receptor, the “In vitro activity relative to native peptide (%) vs. GLP-1” value is 8.5%. Also, in the experiment with human GIP receptor, the “In vitro activity relative to native peptide (%) vs. GIP” value was below 0.1%.

B11: triple agonist of SEQ ID NO: 43 (peptide)
peptide: Y[Aib]QGTFTSDYSKYLDEKRAKEFVQWLLDHHCSSGQPPPS
modifications: bridge 16-20
Consider B11, for which the “In vitro activity relative to native peptide (%) vs. Glucagon” value with human GCG receptor stood at 88.4%. Besides, in the experiment with human GLP-1 receptor, the “In vitro activity relative to native peptide (%) vs. GLP-1” value was found to be 12.6%. Also, the “In vitro activity relative to native peptide (%) vs. GIP” value in the experiment with human GIP receptor amounted to 3.7%.

B12: triple agonist of SEQ ID NO: 35 (peptide)
peptide: H[Aib]QGTFTSDYSIAMDEIHQKDFVNWLLNTKC
modifications: bridge 16-20
Consider B12, for which the “In vitro activity relative to native peptide (%) vs. Glucagon” value in the experiment with human GCG receptor was below 0.1%. Besides, the “In vitro activity relative to native peptide (%) vs. GLP-1” value with human GLP-1 receptor is 7.5%. The “In vitro activity relative to native peptide (%) vs. GIP” value with human GIP receptor is 1.3%.

B13: triple agonist of SEQ ID NO: 38 (peptide)
peptide: [Acetyl(2-(4-imidazolyl))][Aib]QGTFTSDKSSYLDERAAQDFVQWLLDGGPSSGAPPPSS
modifications: not fully specified
Turning to B13, in the experiment with human GCG receptor, the “In vitro activity relative to native peptide (%) vs. Glucagon” value is 1%. Moreover, the “In vitro activity relative to native peptide (%) vs. GLP-1” value with human GLP-1 receptor is 2.3%. For the same molecule, the “In vitro activity relative to native peptide (%) vs. GIP” value with human GIP receptor is 1%.

B14: triple agonist of SEQ ID NO: 39 (peptide)
peptide: H[Aib]QGTFTSDYSKYLDGQHAQCFVAWLLAGGGPSSGAPPPS
Take B14: the “In vitro activity relative to native peptide (%) vs. Glucagon” value in the experiment with human GCG receptor amounted to 0.53%. For the same molecule, the “In vitro activity relative to native peptide (%) vs. GLP-1” value with human GLP-1 receptor came to 13.9%. In the experiment with human GIP receptor, the “In vitro activity relative to native peptide (%) vs. GIP” value is below 0.1%.

B15: triple agonist of SEQ ID NO: 50 (peptide)
peptide: H[Aib]QGTFTSDYSKYLDEKRAKEFVQWLLDHHPSSGQPPPSC
modifications: bridge 16-20
Consider B15, for which the “In vitro activity relative to native peptide (%) vs. Glucagon” value with human GCG receptor turned out to be 50.5%. The “In vitro activity relative to native peptide (%) vs. GLP-1” value with human GLP-1 receptor amounted to 67.4%. In the experiment with human GIP receptor, the “In vitro activity relative to native peptide (%) vs. GIP” value amounted to 2.7%.

B16: triple agonist of SEQ ID NO: 34 (peptide)
peptide: H[Aib]QGTFTSDYSKYLDEKRQKEFVNWLLAQKC
modifications: bridge 16-20
Turning to B16, the “In vitro activity relative to native peptide (%) vs. Glucagon” value with human GCG receptor was found to be 0.92%. Also, the “In vitro activity relative to native peptide (%) vs. GLP-1” value in the experiment with human GLP-1 receptor came out at 19.1%. The “In vitro activity relative to native peptide (%) vs. GIP” value with human GIP receptor was 0.6%.

B17: triple agonist of SEQ ID NO: 51 (peptide)
peptide: H[Aib]QGTFTSDYSKYLDEKRQKEFVQWLLNTC
modifications: bridge 16-20
As to B17, the “In vitro activity relative to native peptide (%) vs. Glucagon” value in the experiment with human GCG receptor came to 2%. In addition, in the experiment with human GLP-1 receptor, the “In vitro activity relative to native peptide (%) vs. GLP-1” value worked out at 14.4%. In addition, in the experiment with human GIP receptor, the “In vitro activity relative to native peptide (%) vs. GIP” value came to 0.1%.

B18: triple agonist of SEQ ID NO: 37 (peptide)
peptide: H[Aib]QGTFTSDYSKYLDECRQKEFVQWLLNGGPSSGAPPPSG
modifications: bridge 16-20
On to B18, for which, in the experiment with human GCG receptor, the “In vitro activity relative to native peptide (%) vs. Glucagon” value was 6.21%. Also, in the experiment with human GLP-1 receptor, the “In vitro activity relative to native peptide (%) vs. GLP-1” value worked out at 236%. Besides, the “In vitro activity relative to native peptide (%) vs. GIP” value in the experiment with human GIP receptor was determined as 2.2%.

B19: triple agonist of SEQ ID NO: 49 (peptide)
peptide: [Acetyl(2-(4-imidazolyl))][Aib]QGTFTSDYSICMDEIHQKDFVNWLLNTK
modifications: bridge 16-20; not fully specified
Regarding B19, in the experiment with human GCG receptor, the “In vitro activity relative to native peptide (%) vs. Glucagon” value was below 0.1%. Further, in the experiment with human GLP-1 receptor, the “In vitro activity relative to native peptide (%) vs. GLP-1” value worked out at 29.8%. The “In vitro activity relative to native peptide (%) vs. GIP” value in the experiment with human GIP receptor worked out at 3.3%.

B20: triple agonist of SEQ ID NO: 42 (peptide)
peptide: Y[Aib]QGTFTSDYSKYLDEKRAKEFVQWLLDHHPSSGQPPPSC
modifications: bridge 16-20
In the case of B20, the “In vitro activity relative to native peptide (%) vs. Glucagon” value in the experiment with human GCG receptor worked out at 206%. Also, the “In vitro activity relative to native peptide (%) vs. GLP-1” value with human GLP-1 receptor amounted to 33.9%. The “In vitro activity relative to native peptide (%) vs. GIP” value in the experiment with human GIP receptor is 7.8%.

B21: triple agonist of SEQ ID NO: 36 (peptide)
peptide: H[Aib]QGTFTSDYSKYLCEKRQKEFVQWLLNGGPSSGAPPPSG
modifications: bridge 16-20
On to B21, for which, in the experiment with human GCG receptor, the “In vitro activity relative to native peptide (%) vs. Glucagon” value worked out at 0.39%. Also, in the experiment with human GLP-1 receptor, the “In vitro activity relative to native peptide (%) vs. GLP-1” value is 37.4%. In the experiment with human GIP receptor, the “In vitro activity relative to native peptide (%) vs. GIP” value stood at 0.2%.

(Values after patent US20230302148A1, “PHARMACEUTICAL COMPOSITION COMPRISING LONG-ACTING CONJUGATE OF TRIPLE GLUCAGON/GLP-1/GIP RECEPTOR AGONIST” (HANMI PHARM. CO., LTD., priority 2020, published 2023).)
